Test results: patent US20250333467A1 (TECTONIC OPERATING, published 2025)
Numbering of substitutions follows the chain as printed.

T1: human RXFP1 (human, UniProt Q9HBX9 1-757)
T1 sequence (looked up): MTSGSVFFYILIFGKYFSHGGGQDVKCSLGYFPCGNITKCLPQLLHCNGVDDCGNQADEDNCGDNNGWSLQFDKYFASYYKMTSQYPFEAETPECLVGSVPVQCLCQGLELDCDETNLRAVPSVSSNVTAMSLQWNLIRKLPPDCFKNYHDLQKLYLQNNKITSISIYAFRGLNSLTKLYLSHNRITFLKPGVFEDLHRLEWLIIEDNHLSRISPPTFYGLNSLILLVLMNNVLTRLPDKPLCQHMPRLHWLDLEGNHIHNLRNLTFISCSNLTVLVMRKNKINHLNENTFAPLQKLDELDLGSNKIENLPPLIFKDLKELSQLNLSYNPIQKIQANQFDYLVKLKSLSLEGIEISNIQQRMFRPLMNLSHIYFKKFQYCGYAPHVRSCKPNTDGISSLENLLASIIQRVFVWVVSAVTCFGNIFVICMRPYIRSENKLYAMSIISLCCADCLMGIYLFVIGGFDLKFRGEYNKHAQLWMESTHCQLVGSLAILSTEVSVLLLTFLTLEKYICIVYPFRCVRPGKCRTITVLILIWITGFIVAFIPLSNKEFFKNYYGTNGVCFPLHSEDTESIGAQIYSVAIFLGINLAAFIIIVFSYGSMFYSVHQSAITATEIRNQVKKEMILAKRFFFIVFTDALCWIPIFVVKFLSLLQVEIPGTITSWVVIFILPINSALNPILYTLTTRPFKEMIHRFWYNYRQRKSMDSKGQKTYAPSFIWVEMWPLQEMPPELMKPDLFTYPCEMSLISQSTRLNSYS

T2: rat RXFP1 (rat, UniProt Q6R6I6 1-758)
T2 sequence (looked up): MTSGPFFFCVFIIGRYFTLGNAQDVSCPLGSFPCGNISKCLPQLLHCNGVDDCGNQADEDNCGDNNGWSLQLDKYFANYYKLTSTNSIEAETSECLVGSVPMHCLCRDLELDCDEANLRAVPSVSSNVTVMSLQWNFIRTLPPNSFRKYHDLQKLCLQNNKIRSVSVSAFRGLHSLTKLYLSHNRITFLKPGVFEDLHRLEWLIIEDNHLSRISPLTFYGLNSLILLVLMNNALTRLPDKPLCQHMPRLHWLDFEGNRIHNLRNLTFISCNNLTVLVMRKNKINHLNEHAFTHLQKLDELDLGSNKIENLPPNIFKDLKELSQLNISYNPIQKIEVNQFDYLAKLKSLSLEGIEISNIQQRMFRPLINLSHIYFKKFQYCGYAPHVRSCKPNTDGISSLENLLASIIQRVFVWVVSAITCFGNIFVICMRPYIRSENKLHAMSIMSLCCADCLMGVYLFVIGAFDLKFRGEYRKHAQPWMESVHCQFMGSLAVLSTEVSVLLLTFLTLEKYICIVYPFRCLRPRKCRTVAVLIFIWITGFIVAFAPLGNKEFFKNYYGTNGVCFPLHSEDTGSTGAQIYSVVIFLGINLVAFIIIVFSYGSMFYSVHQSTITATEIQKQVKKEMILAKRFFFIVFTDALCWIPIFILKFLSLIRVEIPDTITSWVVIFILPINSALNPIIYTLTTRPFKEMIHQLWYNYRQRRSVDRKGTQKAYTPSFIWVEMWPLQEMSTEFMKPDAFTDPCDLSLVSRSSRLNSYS

B1: SEQ ID NO: 496 (Fc fusion)
chain: DKTHTCPPCPAPEAAGGPSVFLFPPKPKDTLMISRTPEVTCVVVDVSHEDPEVKFNWYVDGVEVHNAKTKPREEQYNSTYRVVSVLTVLHQDWLNGKEYKCKVSNKALAAPIEKTISKAKGQPREPQVYTLPPSRDELTKNQVSLTCLVKGFYPSDIAVEWESNGQPENNYKTTPPVLDSDGSFFLYSKLTVDKSRWQQGNVFSCSVLHEALHSHYTQKSLSLSPGKGGSDSWKEEVIKLCGRELVRAQIAICGKSTASDAAGANANAGARQLYSALANKCCHVGCTKRSLARFC
B2: SEQ ID NO: 93 (Fc fusion)
chain: B1 chain with K227E, K234Q, N265D, N267D, R293Q
B3: SEQ ID NO: 98 (Fc fusion)
chain: B1 chain with K227E, K234Q, K255Q, N265D, R293Q
B4: SEQ ID NO: 86 (Fc fusion)
chain: B1 chain with K234Q, N265D, N267D, R293Q
B5: SEQ ID NO: 111 (Fc fusion)
chain: B1 chain with K227E, K234Q, N265Q, N267Q, R289Q, R293Q
B6: SEQ ID NO: 104 (Fc fusion)
chain: B1 chain with K227E, K234Q, K255Q, N265Q, N267Q, R293Q
B7: SEQ ID NO: 118 (Fc fusion)
chain: B1 chain with K227E, K234Q, K255Q, N265Q, N267Q, R289Q, R293Q
B8: SEQ ID NO: 95 (Fc fusion)
chain: B1 chain with K227E, K234Q, N265Q, N267D, R293Q
B9: SEQ ID NO: 91 (Fc fusion)
chain: B1 chain with K227E, K234Q, N265D, R293Q
B10: SEQ ID NO: 313 (Fc fusion)
chain: DKTHTCPPCPAPEAAGGPSVFLFPPKPKDTLMISRTPEVTCVVVDVSHEDPEVKFNWYVDGVEVHNAKTKPREEQYNSTYRVVSVLTVLHQDWLNGKEYKCKVSNKALAAPIEKTISKAKGQPREPQVYTLPPSRDELTKNQVSLTCLVKGFYPSDIAVEWESNGQPENNYKTTPPVLDSDGSFFLYSKLTVDKSRWQQGNVFSCSVLHEALHSHYTQKSLSLSPGKGGSDSWQEEVIKLCGRELVRAQIAICGKSTGGGEGGGEGGGEGRQLYSALANKCCHVGCTKRSLAQFC
B11: SEQ ID NO: 317 (Fc fusion)
chain: DKTHTCPPCPAPEAAGGPSVFLFPPKPKDTLMISRTPEVTCVVVDVSHEDPEVKFNWYVDGVEVHNAKTKPREEQYNSTYRVVSVLTVLHQDWLNGKEYKCKVSNKALAAPIEKTISKAKGQPREPQVYTLPPSRDELTKNQVSLTCLVKGFYPSDIAVEWESNGQPENNYKTTPPVLDSDGSFFLYSKLTVDKSRWQQGNVFSCSVLHEALHSHYTQKSLSLSPGGGSDSWQEEVIKLCGRELVRAQIAICGKSTGGGEGGGEGGGEGRQLYSALANKCCHVGCTKRSLAQFC
B12: SEQ ID NO: 119 (Fc fusion)
chain: B1 chain with W233Y, K234Q, N265E, N267E, R293Q
B13: SEQ ID NO: 121 (Fc fusion)
chain: B1 chain with W233L, K234Q, N265E, N267E, R293Q
B14: SEQ ID NO: 126 (Fc fusion)
chain: B1 chain with K234Q, N265E, N267E, H283K, R293Q
B15: SEQ ID NO: 125 (Fc fusion)
chain: B1 chain with K234Q, N265E, N267E, H283Q, R293Q
B16: SEQ ID NO: 127 (Fc fusion)
chain: B1 chain with K227E, W233Y, K234Q, N265E, N267E, H283Y, R293Q
B17: SEQ ID NO: 122 (Fc fusion)
chain: B1 chain with W233I, K234Q, N265E, N267E, R293Q
B18: SEQ ID NO: 120 (Fc fusion)
chain: B1 chain with W233F, K234Q, N265E, N267E, R293Q
B19: SEQ ID NO: 124 (Fc fusion)
chain: B1 chain with K234Q, N265E, N267E, H283L, R293Q
B20: SEQ ID NO: 128 (Fc fusion)
chain: B1 chain with K227E, W233Y, K234Q, N265E, N267E, H283K, R293Q
B21: SEQ ID NO: 123 (Fc fusion)
chain: B1 chain with K234Q, N265E, N267E, H283Y, R293Q
B22: SEQ ID NO: 132 (Fc fusion)
chain: B10 chain with K227E, W233Y, G260E, E261G, G262S, G267S, E269G, H283K
B23: SEQ ID NO: 130 (Fc fusion)
chain: B10 chain with K227E, W233Y, G260E, E261G, G262S, G267E, E269G, H283K
B24: SEQ ID NO: 129 (Fc fusion)
chain: B10 chain with K227E, W233Y, G260E, E261G, G262S, G267E, E269G, H283Y
B25: SEQ ID NO: 131 (Fc fusion)
chain: B10 chain with K227E, W233Y, G260E, E261G, G262S, G267S, E269G, H283Y

target: T1, human RXFP1; test: cell-based or functional assay

| THP1 (endogenous RXFP1) cAMP EC50 | Transient HEK293 hRXFP1 cAMP EC50 | Binder |
| --- | --- | --- |
| 2 nM | 0.19 nM | B1 |
| 90 nM | 19.1 nM | B2 |
| 100 nM | 21.5 nM | B3 |
| 30 nM | 7.46 nM | B4 |
| 80 nM | 5.94 nM | B5 |
| 11 nM | 6.17 nM | B6 |
| 200 nM | 25 nM | B7 |
| 26 nM | 10.9 nM | B8 |
| 30 nM | 10.2 nM | B9 |
| 49 nM | 10 nM | B10 |
| 63 nM | 38.2 nM | B11 |

target: T2, rat RXFP1; test: cell-based or functional assay

| Transient HEK293 rRXFP1 cAMP EC50 | Binder |
| --- | --- |
| 1.15 nM | B1 |
| 21.3 nM | B2 |
| 29.1 nM | B3 |
| 24.5 nM | B4 |
| 6.74 nM | B5 |
| 6.74 nM | B6 |
| 20.3 nM | B7 |
| 13.5 nM | B8 |
| 12.4 nM | B9 |
| 15.1 nM | B10 |
| 31.2 nM | B11 |

target: T1, human RXFP1; test: cell-based or functional assay; remark: another data set of the same source

| EC50 for cAMP generation, recombinant human RXFP1 assay (average) | Binder |
| --- | --- |
| 0.2 nM | B1 |

target: T2, rat RXFP1; test: cell-based or functional assay; remark: another data set of the same source

| EC50 for cAMP generation, recombinant rat RXFP1 assay (average) | Binder |
| --- | --- |
| 1 nM | B1 |

target: T1, human RXFP1; test: cell-based or functional assay; remark: another data set of the same source

| Potency (cAMP, transient hRXFP1 in HEK293) | Binder |
| --- | --- |
| 0.2 nM | B1 |
| 11.1 nM | B2 |
| 8.8 nM | B3 |
| 4 nM | B4 |
| 3.5 nM | B5 |
| 2.8 nM | B6 |
| 10.1 nM | B7 |
| 6.8 nM | B8 |
| 3.9 nM | B9 |
| 4.2 nM | B10 |
| 8 nM | B11 |

target: T1, human RXFP1; test: cell-based or functional assay; remark: another data set of the same source

| Potency (cAMP, transient hRXFP1 in HEK293) | Binder |
| --- | --- |
| 4.9 nM | B12 |
| 5.5 nM | B13 |
| 8.3 nM | B14 |
| 11.1 nM | B15 |
| 32 nM | B16 |
| 6.5 nM | B17 |
| 4.8 nM | B18 |
| 20.8 nM | B19 |
| 23.2 nM | B20 |
| 11.7 nM | B21 |
| 11.2 nM | B22 |
| 24.6 nM | B23 |
| 42.4 nM | B24 |
| 16.4 nM | B25 |
